Reference: IntAct's records for PubMed 31515488

B1: Glutathione S-transferase Mu 5 (Homo sapiens), P46439 (parent)
chain: MPMTLGYWDIRGLAHAIRLLLEYTDSSYVEKKYTLGDAPDYDRSQWLNEKFKLGLDFPNLPYLIDGAHKITQSNAILRYIARKHNLCGETEEEKIRVDILENQVMDNHMELVRLCYDPDFEKLKPKYLEELPEKLKLYSEFLGKRPWFAGDKITFVDFLAYDVLDMKRIFEPKCLDAFLNLKDFISRFEGLKKISAYMKSSQFLRGLLFGKSATWNSK
partner: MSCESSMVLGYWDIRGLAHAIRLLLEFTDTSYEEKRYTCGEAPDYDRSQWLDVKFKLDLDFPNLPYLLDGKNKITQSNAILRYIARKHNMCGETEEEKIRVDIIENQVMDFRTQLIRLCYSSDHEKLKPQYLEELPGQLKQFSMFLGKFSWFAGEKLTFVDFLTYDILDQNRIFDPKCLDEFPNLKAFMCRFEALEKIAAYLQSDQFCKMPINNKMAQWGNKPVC
B2: Zinc finger protein Aiolos (Homo sapiens), Q9UKT9 (parent)
chain: MEDIQTNAELKSTQEQSVPAESAAVLNDYSLTKSHEMENVDSGEGPANEDEDIGDDSMKVKDEYSERDENVLKSEPMGNAEEPEIPYSYSREYNEYENIKLERHVVSFDSSRPTSGKMNCDVCGLSCISFNVLMVHKRSHTGERPFQCNQCGASFTQKGNLLRHIKLHTGEKPFKCHLCNYACQRRDALTGHLRTHSVEKPYKCEFCGRSYKQRSSLEEHKERCRTFLQSTDPGDTASAEARHIKAEMGSERALVLDRLASNVAKRKSSMPQKFIGEKRHCFDVNYNSSYMYEKESELIQTRMMDQAINNAISYLGAEALRPLVQTPPAPTSEMVPVISSMYPIALTRAEMSNGAPQELEKKSIHLPEKSVPSERGLSPNNSGHDSTDTDSNHEERQNHIYQQNHMVLSRARNGMPLLKEVPRSYELLKPPPICPRDSVKVINKEGEVMDVYRCDHCRVLFLDYVMFTIHMGCHGFRDPFECNMCGYRSHDRYEFSSHIARGEHRALLK
partner: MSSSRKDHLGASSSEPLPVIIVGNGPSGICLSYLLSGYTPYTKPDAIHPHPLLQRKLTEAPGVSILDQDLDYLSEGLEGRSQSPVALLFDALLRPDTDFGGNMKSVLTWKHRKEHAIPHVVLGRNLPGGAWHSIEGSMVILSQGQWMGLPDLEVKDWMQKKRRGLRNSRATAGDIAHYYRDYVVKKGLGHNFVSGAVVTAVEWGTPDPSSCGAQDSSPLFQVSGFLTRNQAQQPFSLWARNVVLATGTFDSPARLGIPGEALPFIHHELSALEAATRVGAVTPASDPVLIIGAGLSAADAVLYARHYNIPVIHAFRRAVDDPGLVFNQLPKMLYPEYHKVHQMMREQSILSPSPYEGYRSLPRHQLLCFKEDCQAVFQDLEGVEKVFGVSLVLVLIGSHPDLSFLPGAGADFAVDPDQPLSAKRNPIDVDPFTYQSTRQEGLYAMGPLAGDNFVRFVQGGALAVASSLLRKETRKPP
B3: KH domain-containing, RNA-binding, signal transduction-associated protein 2 (Homo sapiens), Q5VWX1 (parent)
chain: MEEEKYLPELMAEKDSLDPSFVHASRLLAEEIEKFQGSDGKKEDEEKKYLDVISNKNIKLSERVLIPVKQYPKFNFVGKLLGPRGNSLKRLQEETGAKMSILGKGSMRDKAKEEELRKSGEAKYAHLSDELHVLIEVFAPPGEAYSRMSHALEEIKKFLVPDYNDEIRQEQLRELSYLNGSEDSGRGRGIRGRGIRIAPTAPSRGRGGAIPPPPPPGRGVLTPRGSTVTRGALPVPPVARGVPTPRARGAPTVPGYRAPPPPAHEAYEEYGYDDGYGGEYDDQTYETYDNSYATQTQSVPEYYDYGHGVSEDAYDSYAPEEWATTRSSLKAPPQRSARGGYREHPYGRY
partner: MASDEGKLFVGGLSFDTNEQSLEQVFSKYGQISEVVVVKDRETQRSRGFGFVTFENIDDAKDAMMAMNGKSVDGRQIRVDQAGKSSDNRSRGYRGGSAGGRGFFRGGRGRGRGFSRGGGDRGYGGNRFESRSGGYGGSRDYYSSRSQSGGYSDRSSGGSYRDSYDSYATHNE
B4: WASH complex subunit 3 (Homo sapiens), Q9Y3C0 (parent)
chain: MDEDGLPLMGSGIDLTKVPAIQQKRTVAFLNQFVVHTVQFLNRFSTVCEEKLADLSLRIQQIETTLNILDAKLSSIPGLDDVTVEVSPLNVTSVTNGAHPEATSEQPQQNSTQDSGLQESEVSAENILTVAKDPRYARYLKMVQVGVPVMAIRNKMISEGLDPDLLERPDAPVPDGESEKTVEESSDSESSFSD
partner: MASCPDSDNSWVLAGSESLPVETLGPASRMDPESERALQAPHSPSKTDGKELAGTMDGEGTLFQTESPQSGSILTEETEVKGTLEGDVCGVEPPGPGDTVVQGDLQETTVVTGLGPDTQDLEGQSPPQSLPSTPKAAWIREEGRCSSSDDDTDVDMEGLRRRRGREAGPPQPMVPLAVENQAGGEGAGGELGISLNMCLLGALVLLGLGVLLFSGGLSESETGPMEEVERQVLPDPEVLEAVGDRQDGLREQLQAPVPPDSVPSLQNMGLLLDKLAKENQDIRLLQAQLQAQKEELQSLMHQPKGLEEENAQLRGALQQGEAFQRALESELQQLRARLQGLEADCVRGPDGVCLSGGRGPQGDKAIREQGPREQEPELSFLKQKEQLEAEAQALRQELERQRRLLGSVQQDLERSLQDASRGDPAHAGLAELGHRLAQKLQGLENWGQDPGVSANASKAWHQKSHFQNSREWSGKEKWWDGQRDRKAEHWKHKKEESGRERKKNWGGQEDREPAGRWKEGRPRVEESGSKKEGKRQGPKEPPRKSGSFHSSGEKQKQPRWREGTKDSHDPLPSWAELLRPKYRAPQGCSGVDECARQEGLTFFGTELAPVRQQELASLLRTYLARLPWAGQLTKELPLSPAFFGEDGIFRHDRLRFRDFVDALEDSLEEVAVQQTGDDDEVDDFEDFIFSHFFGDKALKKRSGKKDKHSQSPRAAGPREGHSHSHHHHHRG
B5: E3 ubiquitin-protein ligase TRIM17 (Homo sapiens), Q9Y577 (parent)
chain: MEAVELARKLQEEATCSICLDYFTDPVMTTCGHNFCRACIQLSWEKARGKKGRRKRKGSFPCPECREMSPQRNLLPNRLLTKVAEMAQQHPGLQKQDLCQEHHEPLKLFCQKDQSPICVVCRESREHRLHRVLPAEEAVQGYKLKLEEDMEYLREQITRTGNLQAREEQSLAEWQGKVKERRERIVLEFEKMNLYLVEEEQRLLQALETEEEETASRLRESVACLDRQGHSLELLLLQLEERSTQGPLQMLQDMKEPLSRKNNVSVQCPEVAPPTRPRTVCRVPGQIEVLRGFLEDVVPDATSAYPYLLLYESRQRRYLGSSPEGSGFCSKDRFVAYPCAVGQTAFSSGRHYWEVGMNITGDALWALGVCRDNVSRKDRVPKCPENGFWVVQLSKGTKYLSTFSALTPVMLMEPPSHMGIFLDFEAGEVSFYSVSDGSHLHTYSQATFPGPLQPFFCLGAPKSGQMVISTVTMWVKG
partner: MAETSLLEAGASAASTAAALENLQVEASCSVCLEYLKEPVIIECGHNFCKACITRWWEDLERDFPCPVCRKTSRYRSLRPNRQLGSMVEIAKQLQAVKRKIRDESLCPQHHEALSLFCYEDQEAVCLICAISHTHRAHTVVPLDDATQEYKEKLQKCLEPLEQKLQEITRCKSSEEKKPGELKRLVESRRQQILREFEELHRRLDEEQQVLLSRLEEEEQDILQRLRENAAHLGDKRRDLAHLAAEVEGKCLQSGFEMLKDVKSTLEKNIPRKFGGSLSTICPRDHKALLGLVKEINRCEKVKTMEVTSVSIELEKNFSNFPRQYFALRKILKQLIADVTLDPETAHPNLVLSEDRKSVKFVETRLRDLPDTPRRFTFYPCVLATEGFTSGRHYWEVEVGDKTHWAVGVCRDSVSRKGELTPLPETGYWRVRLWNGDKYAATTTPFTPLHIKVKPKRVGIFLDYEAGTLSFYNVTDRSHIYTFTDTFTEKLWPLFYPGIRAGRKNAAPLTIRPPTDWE
B6: WASH complex subunit 3 (Homo sapiens), Q9Y3C0 (parent)
chain: B4 chain
partner: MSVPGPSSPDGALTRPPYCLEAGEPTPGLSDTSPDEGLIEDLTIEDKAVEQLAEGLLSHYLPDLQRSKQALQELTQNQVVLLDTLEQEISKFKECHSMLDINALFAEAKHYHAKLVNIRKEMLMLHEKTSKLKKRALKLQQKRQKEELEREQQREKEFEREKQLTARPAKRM
B7: Microtubule-associated tumor suppressor candidate 2 (Homo sapiens), Q5JR59-3 (parent)
chain: MGHCCCKPYNCLQCLDKTNESALVKEKELSIELANIRDEVAFHTAKCEKLQKEKEELERRFEDEVKRLGWQQQAELQELEERLQLQFEAEMARLQEEHGDQLLSIRCQHQEQVEDLTASHDAALLEMENNHTVAITILQDDHDHKVQELMSTHELEKKELEENFEKLRLSLQDQVDTLTFQSQSLRDRARRFEEALRKNTEEQLEIALAPYQHLEEDMKSLKQVLEMKNQQIHEQEKKILELEKLAEKNIILEEKIQVLQQQNEDLKARIDQNTVVTRQLSEENANLQEYVEKETQEKKRLSRTNEELLWKLQTGDPTSPIKLSPTSPVYRGSSSGPSSPARVSTTPR
partner: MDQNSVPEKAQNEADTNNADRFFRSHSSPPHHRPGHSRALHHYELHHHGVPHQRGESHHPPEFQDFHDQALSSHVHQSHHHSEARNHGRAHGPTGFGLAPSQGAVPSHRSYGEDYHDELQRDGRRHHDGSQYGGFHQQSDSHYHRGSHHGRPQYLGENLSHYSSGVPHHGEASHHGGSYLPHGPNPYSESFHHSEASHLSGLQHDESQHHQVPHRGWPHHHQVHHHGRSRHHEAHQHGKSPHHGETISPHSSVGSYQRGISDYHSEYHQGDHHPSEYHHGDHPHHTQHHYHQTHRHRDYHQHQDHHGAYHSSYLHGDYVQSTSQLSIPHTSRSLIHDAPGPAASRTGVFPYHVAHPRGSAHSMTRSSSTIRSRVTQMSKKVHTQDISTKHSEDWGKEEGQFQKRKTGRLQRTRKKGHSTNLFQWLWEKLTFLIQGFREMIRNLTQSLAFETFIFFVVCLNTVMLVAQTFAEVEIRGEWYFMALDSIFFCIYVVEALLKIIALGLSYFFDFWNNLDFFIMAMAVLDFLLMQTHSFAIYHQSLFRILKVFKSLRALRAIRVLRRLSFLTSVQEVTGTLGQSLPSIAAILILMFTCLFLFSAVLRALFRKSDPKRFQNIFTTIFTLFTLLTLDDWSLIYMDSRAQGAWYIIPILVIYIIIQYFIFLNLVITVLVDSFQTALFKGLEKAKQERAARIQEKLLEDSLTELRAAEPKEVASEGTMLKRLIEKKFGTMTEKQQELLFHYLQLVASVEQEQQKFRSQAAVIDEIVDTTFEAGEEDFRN
B8: Protein FAM9B (Homo sapiens), Q8IZU0 (parent)
chain: MAAWGKKHAGKDPVRDECEERNRFTETREEDVTDEHGEREPFAETDEHTGANTKKPEDTAEDLTAKRKRMKMDKTCSKTKNKSKHALRKKQLKRQKRDYIHSLKLLNVLEEYITDEQKEEEEEEGEEEELIRIFQEQQKKWQQYRSVRRERLKEMKLLRDQFVKALEDFEDLCDRVFSDEDSELDN
partner: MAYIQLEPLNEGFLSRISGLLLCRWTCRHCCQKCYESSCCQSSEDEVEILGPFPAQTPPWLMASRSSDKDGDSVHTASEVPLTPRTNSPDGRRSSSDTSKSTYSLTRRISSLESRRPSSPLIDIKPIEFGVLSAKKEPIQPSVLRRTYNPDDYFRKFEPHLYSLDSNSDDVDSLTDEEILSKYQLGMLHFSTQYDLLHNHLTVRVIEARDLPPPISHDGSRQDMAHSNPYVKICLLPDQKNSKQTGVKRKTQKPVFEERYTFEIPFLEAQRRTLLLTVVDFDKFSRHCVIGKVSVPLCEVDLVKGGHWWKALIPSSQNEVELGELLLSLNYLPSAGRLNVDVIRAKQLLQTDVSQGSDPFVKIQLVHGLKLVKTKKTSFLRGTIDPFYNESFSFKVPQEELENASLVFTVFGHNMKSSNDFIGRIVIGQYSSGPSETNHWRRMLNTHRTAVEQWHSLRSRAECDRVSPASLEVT
B9: WD repeat domain-containing protein 83 (Homo sapiens), Q9BRX9 (parent)
chain: MAFPEPKPRPPELPQKRLKTLDCGQGAVRAVRFNVDGNYCLTCGSDKTLKLWNPLRGTLLRTYSGHGYEVLDAAGSFDNSSLCSGGGDKAVVLWDVASGQVVRKFRGHAGKVNTVQFNEEATVILSGSIDSSIRCWDCRSRRPEPVQTLDEARDGVSSVKVSDHEILAGSVDGRVRRYDLRMGQLFSDYVGSPITCTCFSRDGQCTLVSSLDSTLRLLDKDTGELLGEYKGHKNQEYKLDCCLSERDTHVVSCSEDGKVFFWDLVEGALALALPVGSGVVQSLAYHPTEPCLLTAMGGSVQCWREEAYEAEDGAG

Variants of: B1
Conditions: with gstm3_human GSTM3, P21266

effect of a mutation on the interaction	Variant
with no effect	L179P

Variants of: B2
Conditions: with osgi1_human OSGIN1, Q9UJX0

effect of a mutation on the interaction	Variant
with no effect	A24V
with no effect	N119D

Variants of: B3
Conditions: with cirbp_human CIRBP

effect of a mutation on the interaction	Variant
with no effect	P333L

Variants of: B4
Conditions: with pbip1_human PBXIP1, Q96AQ6

effect of a mutation on the interaction	Variant
with no effect	F44L

Variants of: B5
Conditions: with tri39_human TRIM39, Q9HCM9

effect of a mutation on the interaction	Variant
disrupting interaction strength	T30A
with no effect	E173K

Variants of: B6
Conditions: with bl1s6_human BLOC1S6, Q9UL45

effect of a mutation on the interaction	Variant
with no effect	F44L

Variants of: B7
Conditions: with ctsr1_human CATSPER1, Q8NEC5

effect of a mutation on the interaction	Variant
with no effect	A89V

Variants of: B8
Conditions: with syt17_human SYT17, Q9BSW7

effect of a mutation on the interaction	Variant
with no effect	R23H

Variants of: B9
Conditions: with keap1_human KEAP1, Q14145
Chain of keap1_human KEAP1, Q14145 (Q14145 whole entry): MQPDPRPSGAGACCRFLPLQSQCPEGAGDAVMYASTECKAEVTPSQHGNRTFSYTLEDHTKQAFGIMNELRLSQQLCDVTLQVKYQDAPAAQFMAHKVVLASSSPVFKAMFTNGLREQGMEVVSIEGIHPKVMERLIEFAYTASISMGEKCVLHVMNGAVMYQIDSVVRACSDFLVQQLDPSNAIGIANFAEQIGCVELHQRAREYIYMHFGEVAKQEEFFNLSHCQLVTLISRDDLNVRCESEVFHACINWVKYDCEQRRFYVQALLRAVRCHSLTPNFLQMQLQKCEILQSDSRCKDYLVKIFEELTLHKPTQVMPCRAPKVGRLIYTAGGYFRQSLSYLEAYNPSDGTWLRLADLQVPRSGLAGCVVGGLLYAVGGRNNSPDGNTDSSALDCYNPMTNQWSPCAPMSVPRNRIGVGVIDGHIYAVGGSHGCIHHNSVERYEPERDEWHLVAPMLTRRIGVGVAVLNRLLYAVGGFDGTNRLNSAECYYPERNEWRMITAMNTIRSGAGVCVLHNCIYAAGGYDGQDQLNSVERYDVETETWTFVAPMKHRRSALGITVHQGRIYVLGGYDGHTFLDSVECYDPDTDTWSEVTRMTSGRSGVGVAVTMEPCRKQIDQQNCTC

effect of a mutation on the interaction	Variant
with no effect	E144Q
